Experimental data taken from US20140072613A1, “Compositions and Methods for Treating Cutaneous Scarring” (priority 2012, published 2014).

Assays:
Test in all cases: cell-based or functional assay
[1] = target: CDK1/cyclinB(h) (human) (UniProt P06493)
[2] = target: CSK(h) (human) (UniProt P41240)
[3] = target: CaMKIIβ(h) (human) (UniProt Q13554)
[4] = target: DAPK2(h) (human) (UniProt Q9UIK4)
[5] = target: T1, Flt3(h) (human) (UniProt P36888)
T1 sequence (looked up): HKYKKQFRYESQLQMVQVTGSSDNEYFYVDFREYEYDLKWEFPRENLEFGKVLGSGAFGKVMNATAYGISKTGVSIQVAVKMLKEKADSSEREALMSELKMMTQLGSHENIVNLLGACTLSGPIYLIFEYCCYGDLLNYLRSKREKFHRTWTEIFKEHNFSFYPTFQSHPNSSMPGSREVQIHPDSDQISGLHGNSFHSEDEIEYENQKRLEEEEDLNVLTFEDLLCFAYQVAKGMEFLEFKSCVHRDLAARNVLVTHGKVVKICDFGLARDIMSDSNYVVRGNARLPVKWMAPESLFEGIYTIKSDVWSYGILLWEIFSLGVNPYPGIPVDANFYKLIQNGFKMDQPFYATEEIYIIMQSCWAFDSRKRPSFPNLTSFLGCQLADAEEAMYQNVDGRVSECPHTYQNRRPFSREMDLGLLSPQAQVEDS

[6] = target: IGF-1R(h), activated (human) (UniProt P08069)
IGF-1R(h), activated (human), sequence (P08069 959-1367 limits assumed): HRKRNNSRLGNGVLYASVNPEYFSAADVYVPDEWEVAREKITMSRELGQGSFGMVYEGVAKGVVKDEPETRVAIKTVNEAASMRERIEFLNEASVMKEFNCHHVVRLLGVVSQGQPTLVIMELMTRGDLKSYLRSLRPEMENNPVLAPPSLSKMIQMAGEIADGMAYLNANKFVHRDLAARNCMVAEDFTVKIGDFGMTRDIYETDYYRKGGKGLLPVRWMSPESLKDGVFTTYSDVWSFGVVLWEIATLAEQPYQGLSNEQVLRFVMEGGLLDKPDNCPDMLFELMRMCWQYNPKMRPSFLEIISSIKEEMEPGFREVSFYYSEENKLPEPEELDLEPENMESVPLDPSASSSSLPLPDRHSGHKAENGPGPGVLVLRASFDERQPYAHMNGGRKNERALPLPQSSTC

[7] = target: Lck(h) (human) (UniProt P06239)
Lck(h) (human), sequence (P06239 whole entry): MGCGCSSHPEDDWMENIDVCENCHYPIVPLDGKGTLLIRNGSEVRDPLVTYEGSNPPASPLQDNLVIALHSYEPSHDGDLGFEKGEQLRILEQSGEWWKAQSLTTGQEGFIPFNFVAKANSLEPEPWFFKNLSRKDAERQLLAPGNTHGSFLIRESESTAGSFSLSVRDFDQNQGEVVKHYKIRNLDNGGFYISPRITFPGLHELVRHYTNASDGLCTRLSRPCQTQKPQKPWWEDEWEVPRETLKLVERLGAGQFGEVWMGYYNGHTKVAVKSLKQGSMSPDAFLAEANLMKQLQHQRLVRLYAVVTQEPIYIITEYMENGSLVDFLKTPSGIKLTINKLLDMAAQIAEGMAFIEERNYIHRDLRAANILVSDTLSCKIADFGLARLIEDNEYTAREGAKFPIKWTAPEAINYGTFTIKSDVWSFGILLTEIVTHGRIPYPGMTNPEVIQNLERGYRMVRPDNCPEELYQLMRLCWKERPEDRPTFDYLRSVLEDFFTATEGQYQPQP

[8] = target: PDGFRα(h) (human) (UniProt P16234)
PDGFRα(h) (human), sequence (P16234 550-1089 limits assumed): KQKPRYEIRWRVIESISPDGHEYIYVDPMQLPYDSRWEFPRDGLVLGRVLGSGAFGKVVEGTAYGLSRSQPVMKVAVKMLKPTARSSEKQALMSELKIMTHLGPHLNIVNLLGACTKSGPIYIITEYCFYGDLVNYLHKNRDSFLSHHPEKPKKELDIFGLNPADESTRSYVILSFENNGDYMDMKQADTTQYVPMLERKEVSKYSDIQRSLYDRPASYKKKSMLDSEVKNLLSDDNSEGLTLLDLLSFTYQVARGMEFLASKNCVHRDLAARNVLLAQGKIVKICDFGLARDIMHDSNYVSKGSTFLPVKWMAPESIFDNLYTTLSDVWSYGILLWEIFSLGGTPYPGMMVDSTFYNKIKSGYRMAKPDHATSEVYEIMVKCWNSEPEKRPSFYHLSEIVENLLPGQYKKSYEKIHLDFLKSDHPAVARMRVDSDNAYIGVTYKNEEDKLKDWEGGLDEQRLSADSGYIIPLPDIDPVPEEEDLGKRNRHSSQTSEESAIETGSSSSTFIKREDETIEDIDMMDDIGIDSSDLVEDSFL

[9] = target: PKCβII(h) (human) (UniProt P05771)
PKCβII(h) (human), sequence (P05771 other isoform, or with tags, fused parts or gaps): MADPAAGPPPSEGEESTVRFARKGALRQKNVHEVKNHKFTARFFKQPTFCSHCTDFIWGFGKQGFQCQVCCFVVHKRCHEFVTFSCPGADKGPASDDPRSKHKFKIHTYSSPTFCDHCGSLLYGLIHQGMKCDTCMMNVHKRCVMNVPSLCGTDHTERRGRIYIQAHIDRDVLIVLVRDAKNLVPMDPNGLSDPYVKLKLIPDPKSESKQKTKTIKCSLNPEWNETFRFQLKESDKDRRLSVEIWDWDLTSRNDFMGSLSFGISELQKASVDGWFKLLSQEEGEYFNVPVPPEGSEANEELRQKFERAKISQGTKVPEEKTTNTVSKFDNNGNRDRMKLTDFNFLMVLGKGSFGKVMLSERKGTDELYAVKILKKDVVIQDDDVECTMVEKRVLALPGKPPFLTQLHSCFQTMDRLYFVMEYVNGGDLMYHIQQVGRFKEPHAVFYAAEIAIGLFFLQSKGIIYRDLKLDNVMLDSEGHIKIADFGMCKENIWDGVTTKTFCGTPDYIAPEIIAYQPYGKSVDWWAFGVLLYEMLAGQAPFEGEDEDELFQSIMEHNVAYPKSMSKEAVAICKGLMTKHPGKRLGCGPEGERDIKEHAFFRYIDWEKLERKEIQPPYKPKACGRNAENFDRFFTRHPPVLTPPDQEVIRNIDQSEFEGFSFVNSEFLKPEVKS

[10] = target: T2, PKD2(h) (human) (UniProt Q9BZL6)
T2 sequence (looked up): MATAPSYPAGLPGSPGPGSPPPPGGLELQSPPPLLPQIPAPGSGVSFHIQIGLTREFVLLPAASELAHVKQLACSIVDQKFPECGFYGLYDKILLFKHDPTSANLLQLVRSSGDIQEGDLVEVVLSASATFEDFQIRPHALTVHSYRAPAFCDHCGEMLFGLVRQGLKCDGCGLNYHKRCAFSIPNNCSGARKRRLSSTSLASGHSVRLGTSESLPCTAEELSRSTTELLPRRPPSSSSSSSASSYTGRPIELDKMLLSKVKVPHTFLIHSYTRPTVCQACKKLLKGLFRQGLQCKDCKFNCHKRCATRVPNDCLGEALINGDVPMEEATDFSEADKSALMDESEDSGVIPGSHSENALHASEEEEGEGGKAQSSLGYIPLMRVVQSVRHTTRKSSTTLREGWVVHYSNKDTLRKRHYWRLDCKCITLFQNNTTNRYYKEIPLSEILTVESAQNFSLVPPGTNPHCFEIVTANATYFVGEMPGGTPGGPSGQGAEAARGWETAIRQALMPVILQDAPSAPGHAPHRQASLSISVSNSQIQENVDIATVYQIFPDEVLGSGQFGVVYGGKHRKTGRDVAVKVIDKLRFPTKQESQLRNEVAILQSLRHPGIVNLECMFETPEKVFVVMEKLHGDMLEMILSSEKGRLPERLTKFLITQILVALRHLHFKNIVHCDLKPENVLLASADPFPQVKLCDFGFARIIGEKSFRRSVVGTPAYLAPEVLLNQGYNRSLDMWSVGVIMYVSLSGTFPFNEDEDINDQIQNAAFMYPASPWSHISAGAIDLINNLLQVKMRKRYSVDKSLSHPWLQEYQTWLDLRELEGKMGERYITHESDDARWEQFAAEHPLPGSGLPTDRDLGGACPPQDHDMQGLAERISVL

[11] = target: PKGη(h) (human)
[12] = target: T3, Ret(h) (human) (UniProt P07949)
T3 sequence (looked up): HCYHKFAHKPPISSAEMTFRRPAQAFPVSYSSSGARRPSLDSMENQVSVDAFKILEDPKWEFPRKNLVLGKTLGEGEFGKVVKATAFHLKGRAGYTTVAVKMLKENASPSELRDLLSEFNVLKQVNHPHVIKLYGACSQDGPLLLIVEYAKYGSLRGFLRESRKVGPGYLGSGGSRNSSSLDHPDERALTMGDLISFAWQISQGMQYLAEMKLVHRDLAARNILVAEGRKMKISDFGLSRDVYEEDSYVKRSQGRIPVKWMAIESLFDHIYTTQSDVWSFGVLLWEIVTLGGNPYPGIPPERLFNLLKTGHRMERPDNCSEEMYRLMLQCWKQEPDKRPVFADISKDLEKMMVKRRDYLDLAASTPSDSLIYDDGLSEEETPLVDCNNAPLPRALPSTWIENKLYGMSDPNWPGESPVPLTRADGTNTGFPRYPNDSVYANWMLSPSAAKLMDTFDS

[13] = target: SRPK1(h) (human) (UniProt Q96SB4)
SRPK1(h) (human), sequence (Q96SB4 whole entry): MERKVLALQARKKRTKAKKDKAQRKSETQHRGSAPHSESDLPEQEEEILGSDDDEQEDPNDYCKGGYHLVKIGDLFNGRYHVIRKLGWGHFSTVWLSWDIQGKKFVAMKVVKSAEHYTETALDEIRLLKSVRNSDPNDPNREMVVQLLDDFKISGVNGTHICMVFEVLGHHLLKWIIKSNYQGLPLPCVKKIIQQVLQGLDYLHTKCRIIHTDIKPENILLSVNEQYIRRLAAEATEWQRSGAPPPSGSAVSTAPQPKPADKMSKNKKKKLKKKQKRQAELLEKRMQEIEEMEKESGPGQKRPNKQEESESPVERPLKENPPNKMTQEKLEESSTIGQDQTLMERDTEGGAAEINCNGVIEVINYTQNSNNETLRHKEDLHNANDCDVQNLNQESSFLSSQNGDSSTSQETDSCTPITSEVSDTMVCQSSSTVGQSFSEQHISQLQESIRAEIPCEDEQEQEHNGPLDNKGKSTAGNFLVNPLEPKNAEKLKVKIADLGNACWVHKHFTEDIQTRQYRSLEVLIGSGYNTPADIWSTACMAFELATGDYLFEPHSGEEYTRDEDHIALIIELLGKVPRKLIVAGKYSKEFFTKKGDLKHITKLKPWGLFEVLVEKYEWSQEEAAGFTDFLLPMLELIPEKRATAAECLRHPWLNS

[14] = target: Src(1-530)(h) (human) (UniProt P12931)
[15] = target: T4, Txk(h) (human) (UniProt P42681)
T4 sequence (looked up): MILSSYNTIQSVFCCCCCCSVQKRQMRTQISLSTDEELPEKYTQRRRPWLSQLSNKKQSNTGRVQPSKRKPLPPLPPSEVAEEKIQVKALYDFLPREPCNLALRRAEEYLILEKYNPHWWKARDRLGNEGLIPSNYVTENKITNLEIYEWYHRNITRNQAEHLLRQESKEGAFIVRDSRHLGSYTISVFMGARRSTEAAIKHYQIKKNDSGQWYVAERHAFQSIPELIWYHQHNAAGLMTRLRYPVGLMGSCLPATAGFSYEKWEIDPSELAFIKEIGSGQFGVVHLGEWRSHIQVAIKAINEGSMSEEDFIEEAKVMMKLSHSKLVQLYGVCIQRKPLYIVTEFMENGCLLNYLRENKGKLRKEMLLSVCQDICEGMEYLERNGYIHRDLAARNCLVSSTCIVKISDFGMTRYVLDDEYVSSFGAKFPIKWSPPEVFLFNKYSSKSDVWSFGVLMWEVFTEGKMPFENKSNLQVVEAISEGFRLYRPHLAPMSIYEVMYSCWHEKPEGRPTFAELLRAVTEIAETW

CDK1/cyclinB(h) (human), sequence (P06493 whole entry, chain 1 of 2): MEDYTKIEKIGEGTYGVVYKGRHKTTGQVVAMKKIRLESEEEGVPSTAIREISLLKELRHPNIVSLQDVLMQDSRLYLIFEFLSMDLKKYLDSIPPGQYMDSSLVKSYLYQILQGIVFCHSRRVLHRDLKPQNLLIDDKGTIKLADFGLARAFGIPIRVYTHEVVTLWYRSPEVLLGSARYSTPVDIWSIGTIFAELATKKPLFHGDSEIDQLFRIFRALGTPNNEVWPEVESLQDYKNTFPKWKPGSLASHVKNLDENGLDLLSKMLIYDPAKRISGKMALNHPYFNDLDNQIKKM
CDK1/cyclinB(h) (human), sequence (P14635 whole entry, chain 2 of 2, further chain): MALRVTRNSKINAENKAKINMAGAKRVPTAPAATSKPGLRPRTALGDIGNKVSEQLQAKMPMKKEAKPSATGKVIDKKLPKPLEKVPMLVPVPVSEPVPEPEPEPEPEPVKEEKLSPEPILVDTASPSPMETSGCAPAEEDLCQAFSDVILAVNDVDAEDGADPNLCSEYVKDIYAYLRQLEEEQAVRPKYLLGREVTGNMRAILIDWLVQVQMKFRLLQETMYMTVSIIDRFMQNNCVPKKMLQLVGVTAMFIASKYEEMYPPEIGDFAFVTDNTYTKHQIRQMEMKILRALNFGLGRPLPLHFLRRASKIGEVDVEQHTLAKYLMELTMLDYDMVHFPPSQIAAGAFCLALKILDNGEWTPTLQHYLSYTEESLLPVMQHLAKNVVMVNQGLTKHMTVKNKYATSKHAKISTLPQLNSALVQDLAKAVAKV
DAPK2(h) (human), sequence (Q9UIK4 whole entry): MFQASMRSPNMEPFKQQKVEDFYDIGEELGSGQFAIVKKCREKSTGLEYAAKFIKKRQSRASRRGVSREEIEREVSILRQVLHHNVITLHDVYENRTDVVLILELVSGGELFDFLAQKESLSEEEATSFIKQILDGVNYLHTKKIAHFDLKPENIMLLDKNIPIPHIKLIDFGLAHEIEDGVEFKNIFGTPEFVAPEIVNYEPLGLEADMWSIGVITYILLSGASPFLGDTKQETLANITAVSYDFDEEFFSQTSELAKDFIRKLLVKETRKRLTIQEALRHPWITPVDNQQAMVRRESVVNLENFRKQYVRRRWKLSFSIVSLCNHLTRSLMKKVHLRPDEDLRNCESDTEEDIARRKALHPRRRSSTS
CaMKIIβ(h) (human), sequence (Q13554 whole entry): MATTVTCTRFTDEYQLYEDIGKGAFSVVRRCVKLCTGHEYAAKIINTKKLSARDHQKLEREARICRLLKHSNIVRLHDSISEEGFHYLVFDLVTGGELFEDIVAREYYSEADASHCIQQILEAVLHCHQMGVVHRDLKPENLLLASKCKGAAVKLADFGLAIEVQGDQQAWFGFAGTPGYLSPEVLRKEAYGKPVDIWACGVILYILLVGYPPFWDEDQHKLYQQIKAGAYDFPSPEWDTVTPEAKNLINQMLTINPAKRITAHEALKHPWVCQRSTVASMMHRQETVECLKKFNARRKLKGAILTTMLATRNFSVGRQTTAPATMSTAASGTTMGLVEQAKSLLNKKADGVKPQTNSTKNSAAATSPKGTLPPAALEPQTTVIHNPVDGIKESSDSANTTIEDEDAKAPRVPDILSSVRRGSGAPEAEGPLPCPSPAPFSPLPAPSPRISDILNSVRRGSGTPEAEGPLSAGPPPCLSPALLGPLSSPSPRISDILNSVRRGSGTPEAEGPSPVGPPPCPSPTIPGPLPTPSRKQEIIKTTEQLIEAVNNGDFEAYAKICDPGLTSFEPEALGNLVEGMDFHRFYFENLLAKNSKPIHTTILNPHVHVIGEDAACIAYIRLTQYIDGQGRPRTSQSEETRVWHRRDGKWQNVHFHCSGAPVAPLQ

% activity, 100 µM [1]: 57%
% activity, 100 µM [2]: 2%
% activity, 100 µM [3]: 3%
% activity, 100 µM [4]: 3%
% activity, 100 µM [5]: 17%
% activity, 100 µM [6]: 45%
% activity, 100 µM [7]: 359%
% activity, 100 µM [8]: 40%
% activity, 100 µM [9]: 3%
% activity, 100 µM [10]: 10%
% activity, 100 µM [11]: 45%
% activity, 100 µM [12]: 174%
% activity, 100 µM [13]: 80%
% activity, 100 µM [14]: 21%
% activity, 100 µM [15]: 10%
Substance: MMI-0500 (peptide)
